# The DeepSol protein solubility set
# Experiment: soluble on expression in E. coli; label from the status in PepcDB or PDB records
row,Sequence,soluble on expression in E. coli
1,MAKVLCVLYDDPVDGYPKTYARDDLPKIDHYPGGQTLPTPKAIDFTPGQLLGSVSGELGLRKYLESNGHTLVVTSDKDGPDSVFERELVDADVVISQPFWPAYLTPERIAKAKNLKLALTAGIGSDHVDLQSAIDRNVTVAEVTYCNSISVAEHVVMMILSLVRNYLPSHEWARKGGWNIADCVSHAYDLEAMHVGTVAAGRIGLAVLRRLAPFDVHLHYTDRHRLPESVEKELNLTWHATREDMYPVCDVVTLNCPLHPETEHMINDETLKLFKRGAYIVNTARGKLCDRDAVARALESGRLAGYAGDVWFPQPAPKDHPWRTMPYNGMTPHISGTTLTAQARYAAGTREILECFFEGRPIRDEYLIVQGGALAGTGAHSYSKGNATGGSEEAAKFKKAV,soluble
2,MDNPVKLDTPVSGWRAGDGSAANYRQVVNYPASSVNVAADQATTARIRGAIESQPKDRPATLVVNGVSMPLKVDADGSFDRPFAFPSGSNSVEVRNAAGQSRRVQFYHGGGGGEVPAKLRVLLSWDSDNTDLDLHLVTPDGDHVWYGNRSLANGATLDVDVTTGYGPEIIATPTPQKGPYLVYVNYFGGGYGSSEDGAEQAAQDLTTARITLVTEEGTPNEKQETFLVPMRKPGELTLVKRFSYPLEHHHHHH,soluble
3,MSLGMPSKQREYSNRFFDSTVWNDFAFRDDDVVIASYAKAGTTWVQQIVAQLIFGGAEEIEVSRLSPWFDSVYPDKATKQRLLAEQRHRRFVKTHLPADALVLSERARYLYVGRDARDIVWSLYDHQRAVSADAQARLDAEPSSNGKLRVMPPPTCSVEDYFQTWMRADGAPLWPFWEGVRSWWALRDYDNVLLVHYAALLHDLPAQVRRIAAFLDIPLDAPCCERVLAHCSLDYMRAHAARYVPQGAGFWRDGGRAFFNQGLNGRWRDRLAPAVDAAYRQHVVAELGAECARWLATGDVASEGHHHHHH,soluble
4,MGSDKIHHHHHHMRISYGVENLRSLTRTPEIELRPITILIGRNSAGKSTYLRSFALMRQSLEVKSSAPILWYGDYVDFGDFDAAVSNGDKDSDITFNFRVEDLDTRDVEDEIYYYNEYAYRSSRRKISYQAVSLSISLGEQLRRTVRRRIALEIPEDRISAVASFEKDGRECSDFQINGQRLSDLIPNVAVYFRASDIFDRPVLVRQVRKDGKSLRRVVGAASEIGSAISQRLRQQVDKRISEENLAIEARRILNHPRLDPTSLQQLRLRAGNRSFRKLYDRWLKDEASTTLAEIDHLCALNHALITVGRVSSVLKGFFRNTTYLGPARARSERYYRSQELEVSEISPDGQNLPMFLASLSTTEQGRFSDWVEEAFGFGVLVERKEGHVSIKLRQRTISVNVADTGYGVSQILPVLAQIWWATQIPRNYTRQMRHGLRPITMEQPELHLHPAHQAKLADVFQSAIERSNASGPEAVLLIETHSEALINRLGELIEYGKIAANDVQVVIFSARGEGEELNTEISTSTFDDNGALRDWPYGFFNY,not soluble
5,MADADLVMTGTVLTVDDARPTAEAIAVADGRVIAVGDRSEVAGLVGANTRVIDLGAGCVMPGFVEAHGHPLLEAVVLSDRFVDIRPVTMRDADDVVAAIRGEVARRGPAGAYLVGWDPLLQSGLGEPTLTWLDSLAPNGPLVIIHNSGHKAYFNSHAAWLNGLTRDTADPKGAKYGRDGNGELDGTAEEIGAILPLLAGVADPSNFGAMLRAECARLNRAGLTTCSEMAFDPGYRPMVEAVRAELTVRLCTYEISNARMCTDATPGQGDDMLRQVGIKIWVDGSPWVGNIDLTFPYLDTPATRAIGVPPGSRGCANYTREQLAEIVGAYFPRGWQIACHVHGDGGVDTILDVYEEALRRNPRDDHRLRLEHVGAIRPDQLRRAAELGVTCSIFVDQIHYWGDVIVDDLFGAQRGSRWMPAGSAVAAGMRISLHNDPPVTPEEPLRNISVAATRVAPSGRVLAPEERLTVEQAIRAQTIDAAWQLFAEDAIGSLQVGKYADMVVLSADPRTVPPEQIADLAVRATFLAGRQVYRRLEHHHHHH,not soluble
6,GGVRPATNAYGGGSTTDNPNRFMYYPSHPVPGTQGGVVLAAYSWSDDAARWDSFDDAERYGYALENLQSVHGRRIEVFYTGAGQTQSWLRDPYACGEAAVYTPHQMTAFHLDVVRPEGPVYFAGEHVSLKHAWIEGAVETAVRAAIAVNEAPVGDTGVTAAAGRRGAAAATEPMREEALTS,soluble
7,MAHHHHHHMIKLGNFAWQLLTRADGSNLGGVLRGSRKVCSLSVARLSKHPYKPKTKEVIHPHVTPPEFLSPSDCFEAKTDELQQYLPSNYYRTKWVESLRAGEHLGSDYPWNLLPHWKFWKKRKYNVVYGEVPWFVSKVKGVSYYQRLNVWMVQWVEEGVHRIRRFRCAFGVLQAKLAAEQFRRNLEESGRVDNRKSERQLRMDYIQKRDERLLRKKRYSKVSKGQF,not soluble
